According to the supplement of paper PMC9112550, “Optimization of the antimicrobial peptide Bac7 by deep mutational scanning” (BMC Biology, 2022):

system: Escherichia coli TOP10; assay: shrunken log2 fold change of peptide-encoding DNA abundance (4.5 h post-induction vs induction); higher = less antimicrobial activity (less host growth inhibition); conditions: time post-induction: 4.5 h; library: site-saturation at positions 5, 18, 19, 20
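Also: peptides expressed intracellularly from a pBAD plasmid library in pooled LB shake-flask culture, induced with 0.3% L-arabinose, DNA abundance read by NGS, three biological replicates, DESeq2 with apeglm shrinkage.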

Sequence	shrunken log2 fold change
RRIRTRPPRLPRPRPRPKHAPRP	0.0369
RRIRNRPPRLPRPRPRPVVWPRP	0.55
RRIRHRPPRLPRPRPRPFPAPRP	-0.405
RRIRQRPPRLPRPRPRPPCQPRP	0.0396
RRIRMRPPRLPRPRPRPQGLPRP	0.0389
RRIRMRPPRLPRPRPRPWSIPRP	-0.0237
RRIRHRPPRLPRPRPRPKDSPRP	0.0292
RRIRTRPPRLPRPRPRPDIPPRP	-0.0961
RRIRIRPPRLPRPRPRPGRRPRP	0.18
RRIRDRPPRLPRPRPRPTMRPRP	1.3
RRIRHRPPRLPRPRPRPRSQPRP	0.136
RRIRGRPPRLPRPRPRPDCNPRP	0.679
RRIRLRPPRLPRPRPRPYWWPRP	0.0346
RRIRLRPPRLPRPRPRPTAYPRP	-0.047
RRIRLRPPRLPRPRPRPENRPRP	0.097
RRIRVRPPRLPRPRPRPCAKPRP	0.128
RRIRVRPPRLPRPRPRPLRKPRP	0.317
RRIRLRPPRLPRPRPRPTNPPRP	-0.348
RRIRTRPPRLPRPRPRPWVWPRP	0.166
RRIRQRPPRLPRPRPRPTAMPRP	0.0174
RRIRPRPPRLPRPRPRPPGHPRP	0.371
RRIRHRPPRLPRPRPRPPNAPRP	0.257
RRIRDRPPRLPRPRPRPLNGPRP	-0.00962
RRIRRRPPRLPRPRPRPVVWPRP	0.643
RRIRSRPPRLPRPRPRPAWEPRP	0.499

Sequence	shrunken log2 fold change
RRIRMRPPRLPRPRPRPANLPRP	0.013
RRIRARPPRLPRPRPRPCQPPRP	-0.0379
RRIRGRPPRLPRPRPRPIGMPRP	0.244
RRIRCRPPRLPRPRPRPTIIPRP	-0.343
RRIRNRPPRLPRPRPRPWKTPRP	0.0489
RRIRNRPPRLPRPRPRPETIPRP	-0.0777
RRIRTRPPRLPRPRPRPHTSPRP	-0.301
RRIRKRPPRLPRPRPRPAFSPRP	-0.0331
RRIRLRPPRLPRPRPRPSMTPRP	1.72
RRIRKRPPRLPRPRPRPKPQPRP	0.927
RRIRTRPPRLPRPRPRPDIQPRP	-0.531
RRIRARPPRLPRPRPRPFYEPRP	-0.125
RRIRYRPPRLPRPRPRPAHKPRP	0.00824
RRIRCRPPRLPRPRPRPFDVPRP	-0.479
RRIRLRPPRLPRPRPRPTHFPRP	0.362
RRIRNRPPRLPRPRPRPDVIPRP	-0.135
RRIRHRPPRLPRPRPRPYPKPRP	-0.193
RRIRNRPPRLPRPRPRPIHPPRP	0.135
RRIRMRPPRLPRPRPRPKPVPRP	0.895
RRIRARPPRLPRPRPRPLRMPRP	0.655
RRIRPRPPRLPRPRPRPKPIPRP	0.035
RRIRYRPPRLPRPRPRPAVWPRP	0.11
RRIRGRPPRLPRPRPRPGAHPRP	0.755
RRIRSRPPRLPRPRPRPDRKPRP	-0.0693
RRIRVRPPRLPRPRPRPFNVPRP	-0.185

Sequence	shrunken log2 fold change
RRIRTRPPRLPRPRPRPNNFPRP	-0.381
RRIRERPPRLPRPRPRPNGMPRP	-0.0154
RRIRPRPPRLPRPRPRPWFSPRP	-0.255
RRIRNRPPRLPRPRPRPAELPRP	-0.0198
RRIRVRPPRLPRPRPRPVAVPRP	-0.05
RRIRQRPPRLPRPRPRPRSSPRP	0.0377
RRIRERPPRLPRPRPRPVSRPRP	0.23
RRIRMRPPRLPRPRPRPEHIPRP	-0.0225
RRIRHRPPRLPRPRPRPSANPRP	-0.228
RRIRRRPPRLPRPRPRPPNPPRP	0.691
RRIRDRPPRLPRPRPRPVLRPRP	-0.0147
RRIRPRPPRLPRPRPRPAYRPRP	-0.0399
RRIRYRPPRLPRPRPRPGARPRP	-0.00825
RRIRIRPPRLPRPRPRPQDQPRP	-0.242
RRIRCRPPRLPRPRPRPMDPPRP	-0.543
RRIRLRPPRLPRPRPRPDWNPRP	-0.689
RRIRRRPPRLPRPRPRPIMFPRP	-0.0974
RRIRFRPPRLPRPRPRPGFNPRP	-0.22
RRIRTRPPRLPRPRPRPDEDPRP	0.0169
RRIRRRPPRLPRPRPRPEHFPRP	0.301
RRIRYRPPRLPRPRPRPHEQPRP	-0.0662
RRIRLRPPRLPRPRPRPGKMPRP	-0.0508
RRIRVRPPRLPRPRPRPVESPRP	-0.0208
RRIRDRPPRLPRPRPRPQNHPRP	-0.34
RRIRLRPPRLPRPRPRPRPFPRP	0.358
